From the supplement of paper PMC9170038

Tested on: MS2 coat protein
Test: apparent KD of MS2 coat protein; designed switch direction (-1 OFF switch, 1 ON switch): -1; higher = weaker reporter binding
How it was run: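 Transcription of designed RNA switches on Illumina chips was done by stalled E. coli RNA polymerase. SNAP-549-labelled MS2 coat protein was then titrated in doubling steps from 0.7 or 1.5 nM to 3 µM, with steps of 0.8–1.5 h at the lowest and 10–20 min at the highest concentration. The per-design median over clusters of curve-fitted normalised fluorescence is reported as apparent KD.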

[1] = Eterna round: R95, input ligand: FMN 200 uM
[2] = Eterna round: R95, input ligand: microRNA oligo, concentration not stated
[3] = Eterna round: R95, input ligand: none
[4] = input ligand: microRNA oligo, concentration not stated

Row | Sequence | apparent KD of MS2 coat protein [1] | apparent KD of MS2 coat protein [2] | apparent KD of MS2 coat protein [3] | apparent KD of MS2 coat protein (input ligand: FMN 200 uM) | apparent KD of MS2 coat protein [4] | apparent KD of MS2 coat protein (input ligand: none)
1 | GUAAAGGUAGGAUAUACGAAGAAAAAGGGUAGAAUAAUAACACAUGAGGAUCACCCAUGUAGAAGGACCAAAUG [Mat - Exclusion 2 - Mod of my Tesla design - D5] (puzzle: Exclusion 2) | 65.7 nM | 26.5 nM | 32.4 nM |  |  | 
2 | AGAGUGCUGCGAGGAUAUACAUGAGGAUCACCCAUGUGGAUCUGUGAGGCAAAGCCUCACAGGAUGUAGAAGGCGCAGUACUCA [Mat - Exclusion NG 2 - Mod of JL - D49] (Eterna round: R96, puzzle: Exclusion NG 2) |  |  |  | 156 nM | 23.4 nM | 28.9 nM
3 | UUUAUUUUGCAAGGAUAUGUUUAAUUUUAGUUUCCUUACACAUGAGGAUCACCCAUGUUAUACUUACAGAAGGUGCAUAAUUUU [JR_ExcNG2_Sub038] (Eterna round: R96, puzzle: Exclusion NG 2) |  |  |  |  | 132 nM | 
4 | AGUCCUGGAGUUAGGAUAUGAAGUAUCACUGCACUUCAGAAGGGACUUGAGGAUCACCCAAGUAGCCGUGAGGG [salish99_bmod_ex4_r4_003] (Eterna round: R97, puzzle: Brourd's mod of Exclusion 4) |  |  |  | 108 nM |  | 56.7 nM
5 | AAGAGUGCAGGAUAUACUUGGUAGGGUAAGAUGAGUGAGGGACAUGAGGAUCACCCAUGUAGAAGGGCAGAGAG [JR_Exclu2_Sub057] (puzzle: Exclusion 2) | 33.1 nM | 35.1 nM | 26.7 nM |  |  | 
6 | AAUGAUUGACGAGGAUAUUGUGGUAGAUCACGACGAGAAGGCGUCUGUCACAUGAGGAUCACCCAUGUGAGCUUUGUGGAUAGA [Ex NG1 #73] (Eterna round: R96, puzzle: Exclusion NG 1) |  |  |  | 51.6 nM | 37.4 nM | 72.2 nM
7 | UCCGUACAUGAGGAUCACCCAUGUCAGGAUAUGCAGACCGGCCGCCAGCGACCGGCCCGCAGAAGGGACAUAGA [EX1 B.4] (Eterna round: R97, puzzle: Exclusion 1) |  |  |  | 140 nM |  | 30.7 nM
8 | UAUGGUUAAGUCAGGAUAUGCACGCAGAUUACAAAGCAGAAGGGACAUGAGGAUCACCCAUGUACACUCGUGUU [Ex4 #79] (Eterna round: R97, puzzle: Brourd's mod of Exclusion 4) |  |  |  | 25.9 nM |  | 36.1 nM
9 | CAUUAUGUUGAGGAUAUGCGCCGGAAAACUGACGCAGAAGGCGACACAUGAGGAUCACCCAUGUCAGUUUGCGA [salish99_ex6_r004_425] (Eterna round: R97, puzzle: Exclusion 6) |  |  |  | 70.1 nM |  | 28.3 nM
10 | UGCAUCUGAGGAUAUCACAUGUGGAACAUGAGGAUCACCCAUGUGAUCCACAUGCCGUUGUGAGAAGGCAGUAAAA [Isteon] (puzzle: Exclusion 5) |  | 268 nM |  |  |  | 
11 | GCGGGCUUUUAGGUUCUUAACAUGAGGAUCACCCAUGUGCUCGUCUUGCCGGCCGGCGGGCCGCCGGCCGGGCUUGU (Eterna round: R97, puzzle: Sensor, turn-off variant 1) |  |  |  | 66.4 nM |  | 68.2 nM
12 | UGAUCAGACCGAGGAUAUAUAUGUAGGACGCACGUGAGUGCGUCCAAUACAUGAGGAUCACCCAUGUAGAAGGCGGUCUGAUCU [JL ENG2 1.97] (Eterna round: R96, puzzle: Exclusion NG 2) |  |  |  | 18.5 nM | 9.9 nM | 14.2 nM
13 | UUUCCCUGGCAAGGAUAUCCUGUGCGGUUCCGGCUCGUGUCUGUUACAUGAGGAUCACCCAUGUGGGAGAAGGUGCCUGUGGUU [Design 90] (Eterna round: R96, puzzle: Exclusion NG 2) |  |  |  | 390 nM | 173 nM | 220 nM
14 | CGUCCACAUGAGGAUCACCCAUGUGAGGAUAUCUAGCACGCAGUAGUACUGUGACAUCGGAGAAGGCGUAGGGU [Eternabot (L2) Solution 96] (Eterna round: R97, puzzle: Exclusion 1) |  |  |  | 32.2 nM |  | 21.2 nM
15 | GUGUACGGAGGAUAUGCUGGAAUCUAGCGAAGCUAGGUUCCACAUGAGGAUCACCCAUGUAGAAGGUCGUACAC [Dot plot directed A v8] (puzzle: Exclusion 2) |  | 29.6 nM |  |  |  | 
16 | CCGAGUCGAGUGAGGAUAUAGCUAAGACCGCUUAGCUAGAAGGCACAUGAGGAUCACCCAUGUCUUAGGAGAAG [Eternabot (L1) Solution 80] (Eterna round: R97, puzzle: Brourd's mod of Exclusion 4) |  |  |  | 22.4 nM |  | 22.2 nM
17 | CGGUGCUGAGGAUAUACAUGAGGAUCACCCAUGUGUUCCAGCUAGGUGACUGGCAGAUGUAGAAGGCGGUACUG [JL-ex3-3.38 Brourd mod] (puzzle: Exclusion 3) | 72.2 nM | 98.6 nM | 102 nM |  |  | 

Row | Sequence | apparent KD of MS2 coat protein [1] | apparent KD of MS2 coat protein [2] | apparent KD of MS2 coat protein [3] | apparent KD of MS2 coat protein (input ligand: FMN 200 uM) | apparent KD of MS2 coat protein [4] | apparent KD of MS2 coat protein (input ligand: none)
18 | AAGGUGUUAGGAUAUCGGAGUUUGAGGCAGACGGGAAUUUUCGAGAAGGAACAUGAGGAUCACCCAUGUAGUAU [JR_Exclu4_Sub039] (puzzle: Exclusion 4) |  | 21.6 nM |  |  |  | 
19 | AGGUGACUGGUGAGGAUAUCGUGUUCGAAAGAACGUGAGAAGGCACAUGAGGAUCACCCAUGUGAUCCUCAUCG [Omei Ex4B A30] (Eterna round: R97, puzzle: Brourd's mod of Exclusion 4) |  |  |  | 101 nM |  | 27 nM
20 | AAGAUGCGGAUAGGAUAUGGAAAGAAAAGAAAAUUAGAAGGGUUGGUUAAAAUACAUGAGGAUCACCCAUGUGAAUCAUGAGAA [AK ExNG1-2] (Eterna round: R96, puzzle: Exclusion NG 1) |  |  |  | 132 nM | 89.8 nM | 99.9 nM
21 | GAAUAGUGAGGAUAUGCAAUGAAGGUAGUACGAUAUGUCUGACAUGAGGAUCACCCAUGUAGAAGGCACAGAUC [EX2 #12] (Eterna round: R97, puzzle: Exclusion 2) |  |  |  | 16.1 nM |  | 22 nM
22 | GAUUAUGCGAGCUUUAGGGACAUGAGGAUCACCCAUGUUCGUCUUAUUAAUCUAGGUACACUAACAUACCUAAAUCU [JMF 10] (puzzle: Sensor v3, turn-off variant 1) | 23.9 nM | 37.6 nM | 21.4 nM |  |  | 
23 | UGGGUACUCCAUAGAAGAGACAUGAGGAUCACCCAUGUAGGGCAAGCUUUUUGCUCGUCUUAGGUUGAGGGAUAGGA [JR_SV3TOV1_Sub015] (puzzle: Sensor v3, turn-off variant 1) | 166 nM | 80.7 nM | 280 nM |  |  | 
24 | CUCGGACAUGAGGAUCACCCAUGUGAGGAUAUGGUGCUAUCGUCAUUAGACGAUUGCGUUAGAAGGCACAUUUU [LRO-Excl1-29] (puzzle: Exclusion 1) |  | 29.5 nM |  |  |  | 
25 | GCGUACUGAGGAUAUACAUGAGGAUCACCCAUGUGACACAGCAUUUAUUGAUAAAUUUGUAGAAGGCAGUAGGC [JR_Ex3_Sub059] (Eterna round: R97, puzzle: Exclusion 3) |  |  |  | 144 nM |  | 25 nM
26 | GGAUAAAACUGAGGAUAUGCGGAGAGAGAGAGAGCAGAAGGCAGACAUGAGGAUCACCCAUGUGAGUUCUCGAUAAGAAACACG [Prohibition 57 - Jieux - Exclusion NG 1] (Eterna round: R96, puzzle: Exclusion NG 1) |  |  |  | 107 nM | 24 nM | 31.8 nM
27 | AGUAACUAUCACGAAAGUGAUAGUUACAAUAGCAAGUGAACAUGAGGAUCACCCAUGUCCUCGUUUGCUCGUCUUAU [Sensor 3 - 21] (puzzle: Sensor v3, turn-off variant 2) | 134 nM | 418 nM | 136 nM |  |  | 
28 | UGUCAGAUGGUAGGAUAUCCAUAUCGAGUGACUCUUUCAUAACAUGAGGAUCACCCAUGUCGGUGGGAGAAGGGCCGUAUGGUG [salish99_ExNG02_R04_027] (Eterna round: R96, puzzle: Exclusion NG 2) |  |  |  | 22.9 nM | 14.5 nM | 25.2 nM
29 | UUUUGAUAUGAAGGAUAUACUUAACAUGAGGAUCACCCAUGUGGUGUUGUGAGUGAGUGAGUUUAGUAGAAGGUCAAUUAUUUU [JMF's solution 26] (Eterna round: R96, puzzle: Exclusion NG 2) |  |  |  | 470 nM | 293 nM | 303 nM
30 | AAGUACCGUCACGAUAGUGAUGGUACAACAGGCAAAUGUACAUGAGGAUCACCCAUGUCCUCUUUUGCUCGUCUUAU [Sensor 3 - 99] (puzzle: Sensor v3, turn-off variant 2) | 48.9 nM | 31 nM | 54.7 nM |  |  | 
31 | AACGUCUAGGUAGGAUAUCCACCAACAGGUGGAAGGAUAUGUACGCAGAAGGUUCGCCAACAGGCGGAGAAGGACCUACGCGUA [pwkr exNG2 2xF7 2xFMN.30] (Eterna round: R96, puzzle: Exclusion NG 2) |  |  |  | 274 nM | 57.6 nM | 340 nM
32 | UAAUUCAGAGGAUAUGCGCAUAGAUAAGACUUUUUUUUUUAACAUGAGGAUCACCCAUGUAGAAGGCUGUAAUU [Ex2 #54] (Eterna round: R97, puzzle: Exclusion 2) |  |  |  | 24 nM |  | 23.1 nM
33 | UCGUGUUUAGAGGAUAUAUUAAUAUUUUAAACAAUAGAAGGCUAAACAUGAGGAUCACCCAUGUAUUUGGUUUU [JR_Ex6_Sub055] (Eterna round: R97, puzzle: Exclusion 6) |  |  |  | 46.6 nM |  | 233 nM
